From the supplement of paper PMC7877785 come the findings set out here.

± gives the uncertainty stated by the source.

The nature of this data set: self-splicing fitness, log relative to wild type (ln ratio); higher = more splicing; Tetrahymena group I intron in knt gene, E. coli kanamycin selection, DiMSum; sequences stand for … in CUCUCU…GGAGGGAAAAGUUAUCAGGCAUGCACCUGGUAGCUAGUCUUUAAACCAAUAGAUUGCAUCGGUUUAAAAGGCAAGACCGUCAAAUUGCGGGAAAGGGGUCAACAGCCGUUCAGUACCAAGUCUCAGGGGAAACUUUGAGAUGGCCUUGCAAAGGGUAUGGUAAUAAGCUGACGGACAUGGUCCUAACCACGCAGCCAAGUCCUAAGUCAACAGAUCUUCUGUUGAUAUGGAUGCAGUUCACAGACUAAAUGUCGGUCGGGGAAGAUGUAUUCUUCUCAUAAGAUAUAGUCGGACCUCUCCUUAAUGGGAGCUAGCGGAUGAAGUGAUGCAACACUGGAGCCGCUGGGAACUAAUUUGUAUGCGAAAGUAUAUUGAUUAGUUUUGGAGUACUCGUGGUCG
In a few lines: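 Colonies from six replicate transformations of E. coli BL21(DE3) were pooled and amplicon-sequenced on an Illumina HiSeq 2500. The library placed an intron with all eight P1ex-region nucleotides randomised inside the knt kanamycin-resistance gene on pET-22b(+), and cells grew overnight at 37°C or 30°C on LB agar with or without 25 μg/mL kanamycin (plus 100 μg/mL carbenicillin, 50 μM IPTG, 0.2% rhamnose). Fitness is the DiMSum error-weighted combination of wild-type-normalised replicate fold changes, kanamycin versus none.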

ACUCAGCAAUAUUACGUAGA: the “self-splicing fitness (ln)” value is -1.41 ± 0.066 (30 °C) and -0.457 ± 0.092 (37 °C).
GCGGAGCAAUAUUACGUUCG: the “self-splicing fitness (ln)” value (37 °C) is -0.666 ± 0.37.
As for UAAAAGCAAUAUUACGGGUU, the “self-splicing fitness (ln)” value reads like this: (30 °C) -3.85 ± 0.28; (37 °C) -1.48 ± 0.12.
Regarding UAUGAGCAAUAUUACGUACC, the “self-splicing fitness (ln)” value (30 °C) is -2.28 ± 0.46 and the “self-splicing fitness (ln)” value (37 °C) was -1.86 ± 0.43.
Taken in the same sequence, the figures for AGAGAGCAAUAUUACGAUAU were -2.21 ± 0.47 and -2.2 ± 0.43.
Taken in the same sequence, the figures for AGGCAGCAAUAUUACGUAGC were -2.64 ± 0.23 and -1.29 ± 0.17.
On to UAUGAGCAAUAUUACGUAGG, for which the “self-splicing fitness (ln)” value is, setting by setting: (30 °C) -4.19 ± 0.34; (37 °C) -2.41 ± 0.21.
Consider AUGAAGCAAUAUUACGUUUG, for which the “self-splicing fitness (ln)” value was -2.28 ± 0.11 (30 °C) and -1.56 ± 0.13 (37 °C).
Regarding ACUAAGCAAUAUUACGCGAC, the “self-splicing fitness (ln)” value was -2.71 ± 0.19 (30 °C) and -2.78 ± 0.21 (37 °C).
For GCAUAGCAAUAUUACGGCCC, in that order: -0.542 ± 0.32 and -0.431 ± 0.37.
Regarding GACUAGCAAUAUUACGGUCG, the “self-splicing fitness (ln)” value by setting is: (30 °C) -2.05 ± 0.09; (37 °C) -0.165 ± 0.1.
Turning to CCGCAGCAAUAUUACGACUA, the “self-splicing fitness (ln)” value reads like this: (30 °C) -3.8 ± 0.34; (37 °C) -3.46 ± 0.29.
As for AGCCAGCAAUAUUACGCAGC, the “self-splicing fitness (ln)” value (37 °C) is -1.21 ± 0.28.
As for CAACAGCAAUAUUACGGUCG, the “self-splicing fitness (ln)” value is -0.273 ± 0.041 (30 °C) and 0.0819 ± 0.056 (37 °C).
As for CCCUAGCAAUAUUACGAGAG, the “self-splicing fitness (ln)” value reads like this: (30 °C) -3.79 ± 0.3; (37 °C) -2.5 ± 0.23.
As to GAGAAGCAAUAUUACGAUCC, the “self-splicing fitness (ln)” value (30 °C) is -1.9 ± 0.26 and the “self-splicing fitness (ln)” value (37 °C) was -0.963 ± 0.43.
As to UGUCAGCAAUAUUACGCGGC, the “self-splicing fitness (ln)” value (30 °C) was -3.06 ± 0.24 and the “self-splicing fitness (ln)” value (37 °C) was -2.09 ± 0.31.
Taken in the same sequence, the figures for AGCGAGCAAUAUUACGUCGU were -3.82 ± 0.43 and -2.18 ± 0.36.
As for CCCCAGCAAUAUUACGCCAA, the “self-splicing fitness (ln)” value runs as follows: (30 °C) -2.64 ± 0.17; (37 °C) -2.7 ± 0.19.
For AAGAAGCAAUAUUACGACGA, the “self-splicing fitness (ln)” value is -0.362 ± 0.093 (30 °C) and -0.274 ± 0.099 (37 °C).
Taken in the same sequence, the figures for ACGUAGCAAUAUUACGGAAA were -2.27 ± 0.4 and -1.94 ± 0.33.
As for AUGCAGCAAUAUUACGAUUA, the “self-splicing fitness (ln)” value is -1.32 ± 0.1 (30 °C) and -0.923 ± 0.1 (37 °C).
For UACAAGCAAUAUUACGACUA, the “self-splicing fitness (ln)” value by setting is: (30 °C) -0.188 ± 0.062; (37 °C) 0.316 ± 0.083.
Taken in the same sequence, the figures for ACAGAGCAAUAUUACGCUGU were -3.87 ± 0.42 and -2.69 ± 0.29.
Turning to CAGAAGCAAUAUUACGAUUC, for the setting “37 °C”, the “self-splicing fitness (ln)” value was -1.98 ± 0.18.
Turning to CAUAAGCAAUAUUACGCUUC, the “self-splicing fitness (ln)” value by setting is: (30 °C) -2.57 ± 0.27; (37 °C) -2.19 ± 0.3.
In the case of UCGGAGCAAUAUUACGGGAA, where the note is “37 °C”, the “self-splicing fitness (ln)” value is -2.08 ± 0.4.
On to AUGAAGCAAUAUUACGCUGC, for which the “self-splicing fitness (ln)” value reads like this: (30 °C) -2.7 ± 0.24; (37 °C) -2.42 ± 0.44.
Regarding GCCAAGCAAUAUUACGGUAG, the “self-splicing fitness (ln)” value reads like this: (30 °C) -3.67 ± 0.22; (37 °C) -2.82 ± 0.18.
For CUUAAGCAAUAUUACGGGGG, in that order: -3.65 ± 0.2 and -1.26 ± 0.23.
Take ACCUAGCAAUAUUACGGUAA: the “self-splicing fitness (ln)” value was -2.62 ± 0.13 (30 °C) and -1.89 ± 0.13 (37 °C).
Taken in the same sequence, the figures for ACUGAGCAAUAUUACGAAGG were -2.53 ± 0.18 and -2.02 ± 0.24.
Take CUUGAGCAAUAUUACGUUUA: the “self-splicing fitness (ln)” value is, setting by setting: (30 °C) -3.56 ± 0.26; (37 °C) -2.88 ± 0.28.
Turning to AAAUAGCAAUAUUACGCGGC, the “self-splicing fitness (ln)” value (37 °C) was -2.2 ± 0.42.
For the sequence GAGUAGCAAUAUUACGCAUC, the “self-splicing fitness (ln)” value is, setting by setting: (30 °C) -2.66 ± 0.32; (37 °C) -2.17 ± 0.28.
In the case of GGCAAGCAAUAUUACGUCUA, the “self-splicing fitness (ln)” value (30 °C) was -0.593 ± 0.084 and the “self-splicing fitness (ln)” value (37 °C) is 0.16 ± 0.085.
Regarding GACCAGCAAUAUUACGGGUG, the “self-splicing fitness (ln)” value was -1.85 ± 0.068 (30 °C) and -1.36 ± 0.072 (37 °C).
For CGGUAGCAAUAUUACGGCUA, in that order: -1.59 ± 0.2 and -2.01 ± 0.28.
Consider UACUAGCAAUAUUACGGCGU, for which the “self-splicing fitness (ln)” value (30 °C) was -2.16 ± 0.11 and the “self-splicing fitness (ln)” value (37 °C) is -0.707 ± 0.12.
In the case of CGCAAGCAAUAUUACGCACA, the “self-splicing fitness (ln)” value is, setting by setting: (30 °C) -0.694 ± 0.096; (37 °C) -0.825 ± 0.1.
Taken in the same sequence, the figures for GGUUAGCAAUAUUACGCGCG were -0.271 ± 0.15 and 0.879 ± 0.15.
For UCUUAGCAAUAUUACGACAC, in that order: -2.77 ± 0.46 and -1.65 ± 0.22.
Taken in the same sequence, the figures for UGAUAGCAAUAUUACGGAAA were -4.03 ± 0.43 and -2.2 ± 0.27.
AACAAGCAAUAUUACGUGAA: the “self-splicing fitness (ln)” value by setting is: (30 °C) -2.08 ± 0.082; (37 °C) -0.353 ± 0.081.
Turning to UUAAAGCAAUAUUACGUCGC, the “self-splicing fitness (ln)” value reads like this: (30 °C) -3.09 ± 0.21; (37 °C) -2.18 ± 0.23.
For UACAAGCAAUAUUACGCUUA, in that order: -2.33 ± 0.11 and -1.18 ± 0.08.
Turning to AGCGAGCAAUAUUACGAAGA, the “self-splicing fitness (ln)” value (37 °C) was -2.72 ± 0.34.
Consider GUUUAGCAAUAUUACGGGCU, for which the “self-splicing fitness (ln)” value is, setting by setting: (30 °C) -3.45 ± 0.34; (37 °C) -0.606 ± 0.2.
Taken in the same sequence, the figures for CAAUAGCAAUAUUACGUGAG were -0.424 ± 0.076 and 0.678 ± 0.11.
Regarding GUAUAGCAAUAUUACGUGCC, the “self-splicing fitness (ln)” value runs as follows: (30 °C) -3.23 ± 0.34; (37 °C) -2.54 ± 0.31.
Turning to CCAGAGCAAUAUUACGUAAG, the “self-splicing fitness (ln)” value was -1.59 ± 0.097 (30 °C) and -0.37 ± 0.12 (37 °C).
For ACUUAGCAAUAUUACGACAC, in that order: -2.03 ± 0.14 and -0.762 ± 0.2.
For GAUGAGCAAUAUUACGCGAA, in that order: -3.16 ± 0.16 and -2.04 ± 0.17.
As for GUGGAGCAAUAUUACGCGUA, the “self-splicing fitness (ln)” value by setting is: (30 °C) -2.14 ± 0.36; (37 °C) -0.34 ± 0.25.
As for CUAUAGCAAUAUUACGGGCC, where the note is “30 °C”, the “self-splicing fitness (ln)” value was -1.54 ± 0.36.
In the case of UUAAAGCAAUAUUACGUUUG, the “self-splicing fitness (ln)” value was -2.18 ± 0.087 (30 °C) and -0.699 ± 0.093 (37 °C).
For CCUCAGCAAUAUUACGCGGA, the “self-splicing fitness (ln)” value runs as follows: (30 °C) -2.68 ± 0.22; (37 °C) -3.28 ± 0.26.
Regarding AAGAAGCAAUAUUACGAGCC, the “self-splicing fitness (ln)” value (30 °C) is -2.58 ± 0.2 and the “self-splicing fitness (ln)” value (37 °C) is -2.58 ± 0.29.
For the sequence AUGUAGCAAUAUUACGCCCC, the “self-splicing fitness (ln)” value was -0.236 ± 0.22 (30 °C) and -0.186 ± 0.3 (37 °C).
For GAAGAGCAAUAUUACGUGAU, the “self-splicing fitness (ln)” value by setting is: (30 °C) -3.4 ± 0.14; (37 °C) -1.51 ± 0.13.
For UUCUAGCAAUAUUACGCGUA, the “self-splicing fitness (ln)” value reads like this: (30 °C) -1.15 ± 0.25; (37 °C) -0.575 ± 0.21.
For CCACAGCAAUAUUACGAGCU, in that order: -3.67 ± 0.15 and -2.4 ± 0.15.
